From publication PMC2580030 come the findings set out here.

Values joined by “and” are separate entries in the source; they are usually repeats but may differ in a detail not shown here. Equal entries are not always repeated.

For one experiment, the target named is recombinant soluble empty (peptide free) HLA-DR1 (human). Kind of experiment: fluorescence polarisation.
Turning to FAM labeled P7 L→C HA peptide, the loss of bound peptide during the first 24 hr was 18% and 3%.

The target is the same in a further experiment. The experiment in a line: native gel or EMSA.
For “HA 306-318 P7,10 LA→PG peptide, fluorescein-labeled”, the t1/2 is 92.9 min.

With “HA 306-318 P10 A→G peptide, fluorescein-labeled”, the t1/2 stood at 69 min.

Turning to “HA 306-318 P2,7 VL→SP peptide, fluorescein-labeled”, the t1/2 turned out to be 40.4 min.

In the case of “HA 306-318 P2,3 VK→SD peptide, fluorescein-labeled”, the t1/2 amounted to 4.6 min.

Consider “HA 306-318 P3 K→D peptide, fluorescein-labeled”, for which the t1/2 is 43.8 min.

For the substance “HA 306-318 P7 L→P peptide, fluorescein-labeled”, the t1/2 was found to be 268 min.

Take “HA 306-318 P3,7 KL→DP peptide, fluorescein-labeled”: the t1/2 is 15.9 min.

On to “HA 306-318 P3,10 KA→DG peptide, fluorescein-labeled”, for which the t1/2 was found to be 7.92 min.

On to “HA 306-318 P2,10 VA→SG peptide, fluorescein-labeled”, for which the t1/2 stood at 11.7 min.

Turning to “HA 306-318 P2,7,10 VLA→SPG peptide, fluorescein-labeled”, the t1/2 was determined as 9.9 min.
